US20210238265A1 (Biogen, published 2021)

Molecular target: T1, His-tagged Tau domain IV (AA 355-441 of hTau40) (human, UniProt O02828 317-403 (Capra hircus entry))
T1 construct: Expressed in E. coli BL21 (DE3) and purified on Ni-NTA; not shown: N-terminal 6xHis tag from pRSET-A vector
Test: Western blot of His-tagged tau domains and hTau40
Experimental: DNA fragments, synthesized using GeneArt® (Invitrogen), which encode each Tau domain with 6×His tagged at the N-terminus were cloned into the pRSET-A expression vector (Invitrogen), were transfected into E. coli BL21 (DE3) (New England Biolabs). The expressions of the His-tagged Tau domains were induced by 0.5 mM IPTG for six hours before bacteria were lysed with lysozyme with sonication. The lysate was boiled for five minutes before being further purified with Ni-NTA Superflow Columns (Qiagen). The eluted His-tagged Tau domains were coated on ELISA plates or loaded on polyacrylamide gel for Western Blot. These sequentially overlapping tau domain polypeptides cover the full length of hTau40 (FIG. 13A).

T1 sequence (O02828 317-403): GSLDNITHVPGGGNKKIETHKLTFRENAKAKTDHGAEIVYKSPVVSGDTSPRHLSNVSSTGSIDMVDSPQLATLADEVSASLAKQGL

binding result: no binding
B1: Recombinant human antibody NI-105.4A3 (antibody, V domains shown)
VH: QVQLVESGGGAVQPGGSLRLSCAASGFTFSDYAMHWVRQAPGKGLQWVAVISYEGTYKYYADSVKGRFTISRDNSKNTLNLQMSSLRVEDTAVYFCVKARAFASGQRSTSTVPDYWGQGTLVTVSS
VL: SYELTQPPSVSVSPGQTARITCSGDALPKKYAYWYQQKSGQAPVLVIYEDNKRPSGIPERFSGSSSGTVATLTISGAQVDDEADYYCYSTDISGDLRVFGGGTKLTVL
